Test results: article PMC8421143 (Nucleic Acids Research, 2021)

Biological target: recombinant full-length human BLM with a C-terminal His6-tag (human, UniProt P54132 1-1417)
Experiment: co-IP

Sequence of recombinant full-length human BLM with a C-terminal His6-tag (P54132 whole entry): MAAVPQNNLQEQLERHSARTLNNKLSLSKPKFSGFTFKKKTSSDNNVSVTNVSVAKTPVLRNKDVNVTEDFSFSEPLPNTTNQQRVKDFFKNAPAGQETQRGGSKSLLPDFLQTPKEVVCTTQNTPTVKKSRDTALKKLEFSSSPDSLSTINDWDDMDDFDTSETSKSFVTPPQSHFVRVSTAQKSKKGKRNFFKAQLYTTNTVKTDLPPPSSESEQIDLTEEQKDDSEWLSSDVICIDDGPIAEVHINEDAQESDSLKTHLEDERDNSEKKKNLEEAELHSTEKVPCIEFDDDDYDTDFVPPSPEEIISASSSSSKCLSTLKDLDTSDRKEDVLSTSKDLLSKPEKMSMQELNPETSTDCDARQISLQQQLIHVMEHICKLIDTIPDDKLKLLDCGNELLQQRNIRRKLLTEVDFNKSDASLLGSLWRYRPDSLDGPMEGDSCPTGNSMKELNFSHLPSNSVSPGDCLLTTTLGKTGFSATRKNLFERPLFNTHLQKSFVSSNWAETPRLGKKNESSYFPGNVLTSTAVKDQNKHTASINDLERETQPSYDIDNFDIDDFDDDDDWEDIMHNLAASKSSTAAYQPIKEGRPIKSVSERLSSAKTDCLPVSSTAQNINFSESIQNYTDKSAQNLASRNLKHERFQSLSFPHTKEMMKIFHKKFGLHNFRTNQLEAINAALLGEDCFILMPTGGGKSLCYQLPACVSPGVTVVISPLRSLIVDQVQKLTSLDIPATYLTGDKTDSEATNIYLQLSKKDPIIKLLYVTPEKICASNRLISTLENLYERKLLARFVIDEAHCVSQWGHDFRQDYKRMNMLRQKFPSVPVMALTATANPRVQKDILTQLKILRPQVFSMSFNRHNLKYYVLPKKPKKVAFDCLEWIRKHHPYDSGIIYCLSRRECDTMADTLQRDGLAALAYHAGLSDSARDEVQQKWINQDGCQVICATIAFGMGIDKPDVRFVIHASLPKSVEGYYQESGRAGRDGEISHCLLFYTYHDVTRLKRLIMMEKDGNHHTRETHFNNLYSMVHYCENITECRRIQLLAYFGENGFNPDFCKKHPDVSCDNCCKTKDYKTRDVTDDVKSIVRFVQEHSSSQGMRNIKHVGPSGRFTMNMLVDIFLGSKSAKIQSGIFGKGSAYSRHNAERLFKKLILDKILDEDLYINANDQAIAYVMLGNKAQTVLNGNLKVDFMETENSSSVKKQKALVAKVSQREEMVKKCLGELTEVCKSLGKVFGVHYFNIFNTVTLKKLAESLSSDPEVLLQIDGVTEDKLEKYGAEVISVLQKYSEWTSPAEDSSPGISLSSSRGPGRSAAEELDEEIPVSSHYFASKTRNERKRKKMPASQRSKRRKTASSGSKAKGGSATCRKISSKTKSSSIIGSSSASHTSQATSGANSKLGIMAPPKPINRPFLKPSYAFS

B1: recombinant full length human Mcm6 from wheat germ (natural protein)
chain: MDLAAAAEPGAGSQHLEVRDEVAEKCQKLFLDFLEEFQSSDGEIKYLQLAEELIRPERNTLVVSFVDLEQFNQQLSTTIQEEFYRVYPYLCRALKTFVKDRKEIPLAKDFYVAFQDLPTRHKIRELTSSRIGLLTRISGQVVRTHPVHPELVSGTFLCLDCQTVIRDVEQQFKYTQPNICRNPVCANRRRFLLDTNKSRFVDFQKVRIQETQAELPRGSIPRSLEVILRAEAVESAQAGDKCDFTGTLIVVPDVSKLSTPGARAETNSRVSGVDGYETEGIRGLRALGVRDLSYRLVFLACCVAPTNPRFGGKELRDEEQTAESIKNQMTVKEWEKVFEMSQDKNLYHNLCTSLFPTIHGNDEVKRGVLLMLFGGVPKTTGEGTSLRGDINVCIVGDPSTAKSQFLKHVEEFSPRAVYTSGKASSAAGLTAAVVRDEESHEFVIEAGALMLADNGVCCIDEFDKMDVRDQVAIHEAMEQQTISITKAGVKATLNARTSILAAANPISGHYDRSKSLKQNINLSAPIMSRFDLFFILVDECNEVTDYAIARRIVDLHSRIEESIDRVYSLDDIRRYLLFARQFKPKISKESEDFIVEQYKHLRQRDGSGVTKSSWRITVRQLESMIRLSEAMARMHCCDEVQPKHVKEAFRLLNKSIIRVETPDVNLDQEEEIQMEVDEGAGGINGHADSPAPVNGINGYNEDINQESAPKASLRLGFSEYCRISNLIVLHLRKVEEEEDESALKRSELVNWYLKEIESEIDSEEELINKKRIIEKVIHRLTHYDHVLIELTQAGLKGSTEGSESYEEDPYLVVNPNYLLED
B1: binds.
